Assay results published in PMC9352680, “A comprehensive thermodynamic model for RNA binding by the Saccharomyces cerevisiae Pumilio protein PUF4”.
Where a chain is given by its changes, count along the chain named. Names and notes keep the numbering of the source.

T1: PUF4 RNA-binding domain (Saccharomyces cerevisiae, UniProt P25339 537-888)
T1 sequence: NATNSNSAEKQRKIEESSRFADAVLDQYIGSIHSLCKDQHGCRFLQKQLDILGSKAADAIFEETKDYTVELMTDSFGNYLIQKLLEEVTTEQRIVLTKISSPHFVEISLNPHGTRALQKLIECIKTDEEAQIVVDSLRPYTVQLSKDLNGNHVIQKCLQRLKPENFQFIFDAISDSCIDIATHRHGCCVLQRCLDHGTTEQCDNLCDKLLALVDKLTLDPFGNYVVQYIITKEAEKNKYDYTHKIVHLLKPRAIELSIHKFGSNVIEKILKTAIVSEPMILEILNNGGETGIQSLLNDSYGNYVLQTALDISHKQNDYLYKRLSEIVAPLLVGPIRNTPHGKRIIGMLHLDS

B1: Ic_S2_P4E.1_K4.1_C4.1_H4.1_A4.1_[T5G]_[A6T]_[T7C]_F4.1_T4.1 (ssRNA)
RNA: UUUGAUUAAUAUGAUAUCGUUCUUUCUUGUAGUCUAUUCUUUCUCGAUAUCAUAUUAAUCUUU
B2: Ic_S2_P4E.1_K4.1_C4.1_H4.1_A4.1_[T5C]_[A6G]_[T7A]_F4.1_[T8C]_T4.1 (ssRNA)
RNA: B1 RNA with G32C, U33G, C34A, U35C
B3: Ic_S2_P4E.1_K4.1_C4.1_H4.1_A4.1_[T5C]_[A6C]_F4.1_[T8A]_[A9T]_T4.1 (ssRNA)
RNA: B1 RNA with G32C, U33C, C34U, U35A, A36U
B4: Ic_S2_P4E.1_K4.1_C4.1_H4.1_A4.1_[T5C]_[A6G]_F4.1_[T8A]_T4.1 (ssRNA)
RNA: B1 RNA with G32C, U33G, C34U, U35A
B5: Ic_S2_P4E.1_K4.1_C4.1_H4.1_A4.1_[T5C]_[A6G]_[T7C]_F4.1_[T8C]_T4.1 (ssRNA)
RNA: B1 RNA with G32C, U33G, U35C
B6: Ic_S2_P4E.1_K4.1_C4.1_H4.1_A4.1_[T5C]_[A6C]_F4.1_[T8A]_[A9G]_T4.1 (ssRNA)
RNA: B1 RNA with G32C, U33C, C34U, U35A, A36G
B7: Ic_S2_P4E.1_K4.1_C4.1_H4.1_A4.1_[T5C]_[A6C]_[T7G]_F4.1_[T8A]_[A9C]_T4.1 (ssRNA)
RNA: B1 RNA with G32C, U33C, C34G, U35A, A36C
B8: Ic_S2_P4E.1_K4.1_C4.1_H4.1_A4.1_[T5G]_[A6T]_[T7A]_F4.1_[T8G]_[A9T]_T4.1 (ssRNA)
RNA: B1 RNA with C34A, U35G, A36U
B9: Ic_S2_P4E.1_K4.1_C4.1_H4.1_A4.1_[T5C]_[A6G]_[T7C]_F4.1_[T8G]_[A9C]_T4.1 (ssRNA)
RNA: B1 RNA with G32C, U33G, U35G, A36C
B10: Ic_S2_P4E.1_K4.1_C4.1_H4.1_A4.1_[T5C]_[A6C]_[T7A]_F4.1_[T8A]_[A9C]_T4.1 (ssRNA)
RNA: B1 RNA with G32C, U33C, C34A, U35A, A36C
B11: Ic_S2_P4E.1_K4.1_C4.1_H4.1_A4.1_[T5C]_[A6G]_[T7G]_F4.1_[T8C]_[A9C]_T4.1 (ssRNA)
RNA: B1 RNA with G32C, U33G, C34G, U35C, A36C
B12: Ic_S2_P4E.1_K4.1_C4.1_H4.1_A4.1_[T5G]_[A6T]_F4.1_[T8C]_[A9C]_T4.1 (ssRNA)
RNA: B1 RNA with C34U, U35C, A36C
B13: Ic_S2_P4E.1_K4.1_C4.1_H4.1_A4.1_[T5C]_[A6C]_[T7C]_F4.1_[T8C]_[A9T]_T4.1 (ssRNA)
RNA: B1 RNA with G32C, U33C, U35C, A36U
B14: Ic_S2_P4E.1_K4.1_C4.1_H4.1_A4.1_[T5C]_[A6C]_[T7A]_F4.1_[T8C]_[A9G]_T4.1 (ssRNA)
RNA: B1 RNA with G32C, U33C, C34A, U35C, A36G
B15: Ic_S2_P4E.1_K4.1_C4.1_H4.1_A4.1_[T5C]_[A6C]_[T7A]_F4.1_[T8A]_[A9T]_T4.1 (ssRNA)
RNA: B1 RNA with G32C, U33C, C34A, U35A, A36U
B16: Ic_S2_P4E.1_K4.1_C4.1_H4.1_A4.1_[T5C]_[A6G]_F4.1_[T8C]_T4.1 (ssRNA)
RNA: B1 RNA with G32C, U33G, C34U, U35C
B17: Ic_S2_P4E.1_K4.1_C4.1_H4.1_A4.1_[T5G]_[A6T]_[T7A]_F4.1_T4.1 (ssRNA)
RNA: B1 RNA with C34A
B18: Ic_S2_P4E.1_K4.1_C4.1_H4.1_A4.1_[T5C]_[A6C]_F4.1_[T8C]_[A9G]_T4.1 (ssRNA)
RNA: B1 RNA with G32C, U33C, C34U, U35C, A36G
B19: Ic_S2_P4E.1_K4.1_C4.1_H4.1_A4.1_[T5C]_[A6C]_[T7G]_F4.1_[T8C]_[A9C]_T4.1 (ssRNA)
RNA: B1 RNA with G32C, U33C, C34G, U35C, A36C
B20: Ic_S2_P4E.1_K4.1_C4.1_H4.1_A4.1_[T5C]_[A6C]_F4.1_[T8G]_[A9T]_T4.1 (ssRNA)
RNA: B1 RNA with G32C, U33C, C34U, U35G, A36U
B21: Ic_S2_P4E.1_K4.1_C4.1_H4.1_A4.1_[T5C]_[A6G]_[T7C]_F4.1_[A9C]_T4.1 (ssRNA)
RNA: B1 RNA with G32C, U33G, A36C
B22: Ic_S2_P4E.1_K4.1_C4.1_H4.1_A4.1_[T5C]_[A6G]_[T7C]_F4.1_[T8C]_[A9G]_T4.1 (ssRNA)
RNA: B1 RNA with G32C, U33G, U35C, A36G
B23: Ic_S2_P4E.1_K4.1_C4.1_H4.1_A4.1_[T5C]_[A6C]_[T7C]_F4.1_[A9G]_T4.1 (ssRNA)
RNA: B1 RNA with G32C, U33C, A36G
B24: Ic_S2_P4E.1_K4.1_C4.1_H4.1_A4.1_[T5C]_[A6C]_[T7A]_F4.1_[T8C]_T4.1 (ssRNA)
RNA: B1 RNA with G32C, U33C, C34A, U35C

Biological target: T1, PUF4 RNA-binding domain
Assay: Mg; RNA-MaP; 20 mM Na-HEPES pH 7.4, 30 mM KOAc, 0.75 mM MgCl2, 0.1% Tween-20, 5% glycerol, 0.1 mg/mL BSA, 2 mM DTT; 25 C; 0.0125-409.6 nM protein
Settings: tags: N-His6-TEV cleaved; C-SNAP kept, Cy3B-labelled; label: tethered on chip by stalled RNA polymerase

Binder | Kd [nM]
UCUCUUUGUUUGUAUCUCUU (ssRNA) [Ib_S1_P3E.1_K3.1_C3.1_H3.1_[A4T]_A3.1_[A6G]_F3.1_T3.1] | 133
UCUCUUUGUAUAUUUUCUCUU (ssRNA) [Ia_S1_P4E.1_K4.1_C4.1_H4.1_A4.1_F4.1_[A9T]_T4.1] | 4.51
UCUCUUUGUGUCUAUCUCUU (ssRNA) [Ib_S1_P3E.1_K3.1_C3.1_H3.1_[A4G]_A3.1_[A6C]_F3.1_T3.1] | 983
UCUCUUUGUCUUUAUCUCUU (ssRNA) [Ib_S1_P3E.1_K3.1_C3.1_H3.1_[A4C]_A3.1_[A6T]_F3.1_T3.1] | > 2300
UCUCUUUGUGUGUAUCUCUU (ssRNA) [Ib_S1_P3E.1_K3.1_C3.1_H3.1_[A4G]_A3.1_[A6G]_F3.1_T3.1] | 178
B1 | 4.56
B2 | 407
B3 | 9.29
B4 | 125
B5 | 22.8
B6 | 77.3
B7 | 936
B8 | 984
B9 | 573
B10 | 712
B11 | 830
B12 | 257
B13 | 96.8
B14 | 271
B15 | 20.6
B16 | 117
B17 | 2.26
B18 | 54.9
B19 | 736
B20 | 28.4
B21 | 28.3
B22 | 501
B23 | 20.2
B24 | 162
